Data as given in paper PMC4073494 (Nature communications, 2014).

Target: purified full-length EED (AlphaScreen) (UniProt O75530 1-441)
Assay: AlphaScreen or HTRF

Sequence of purified full-length EED (AlphaScreen) (O75530 whole entry): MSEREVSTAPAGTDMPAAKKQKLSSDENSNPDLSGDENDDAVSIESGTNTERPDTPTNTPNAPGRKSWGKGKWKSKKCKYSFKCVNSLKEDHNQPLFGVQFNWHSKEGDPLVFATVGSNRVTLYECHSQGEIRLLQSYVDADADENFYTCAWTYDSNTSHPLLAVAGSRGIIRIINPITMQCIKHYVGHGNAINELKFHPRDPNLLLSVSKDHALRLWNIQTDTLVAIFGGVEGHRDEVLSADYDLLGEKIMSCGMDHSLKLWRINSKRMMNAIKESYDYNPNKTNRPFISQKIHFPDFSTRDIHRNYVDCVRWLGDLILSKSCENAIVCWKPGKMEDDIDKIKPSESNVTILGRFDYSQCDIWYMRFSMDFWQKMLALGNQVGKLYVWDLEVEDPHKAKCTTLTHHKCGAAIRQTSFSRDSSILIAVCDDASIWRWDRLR

- EC50: 148 nM
B1: unlabeled full-length EZH2 (AlphaScreen) (natural protein)
chain: not shown
